Experimental data from article PMC5611513 (2017).

B1: TplEi (natural protein)
chain: CTSFSSSRSSSMDKTGWITHCFGRFLIDLPPDAVINAGYYLWGDRIEYLDDKPTELAARVDRLEQEWRTQRHKSKGNMFLRKIDFGNESVGLLSWSSEVASKTYLLDTYVTSKPTWHVYRWKGKVSVDREQHAVEISRALARNLRSRAPKEIPSEPGFCIDHAYIAGDSFQVERFGVGVTFPEHPGARFEFRSSTGAELNSLLERVDGFVQNMLSTFAGMETLRKGKHPVGSLPGEEYLVAGSDKGQRGYTFMWEVQGKEESLTEPNLTAGLAVLERSNENGKPPPPAFKSDKEALELWDTIVDSIRVRPTSSSPRGGNAGPSPAPKPATPGGQTLGDHYVYEEFLSSLKPKDSWLDDL

Experiments:
Assay in all cases: ITC
I88A = target: I88A
G98A = target: G98A
L91A = target: L91A
TplEi = target: B1

Binder | Kd (I88A) [µM] | Kd (G98A) [µM] | Kd (L91A) [µM] | Ka (TplEi) [M⁻¹]
B1 | 4.8 | 1.31 | 3.7 | –
Ac-DDLFASIGALWTWAWRGPKARQELLKAEQVEVDD-NH2 [A peptides (“L” peptide, TplE 82-108 plus EQVEVDD)] | – | – | – | 7.98e+06
Ac-DDLFASIGALWTWAWRGPKARQELLKAEQ-NH2 [B peptides (“L” peptide, TplE 82-108 plus EQ)] | – | – | – | 2.09e+06
